Results from PMC3461054.
One block for each molecule: values may come before it.

Columns and labels:
[1] = biological target: His-KLP64DS (6xHis-tagged KLP64D stalk) (Drosophila) (UniProt Q9VRK9); experiment: SEC; affinity purified heterodimer on HiLoad 16/60 Superdex 75 pg in 20 mM Tris-Cl pH 7.5, 5 mM MgCl2, 500 mM NaCl, 2.5 mM DTT, 1 ml/min; fractions on SDS-PAGE, band intensities compared
[2] = biological target: His-KLP68DS (6xHis-tagged KLP68D stalk) (Drosophila); experiment: as above

- stoichiometry N [1]: 1
Molecule: KLP68DS (KLP68D stalk, untagged) (domain or fragment)

- stoichiometry N [2]: 1
B1: KLP64DS (KLP64D stalk, untagged) (domain or fragment)
chain: PKKKREKTDAEKEELAKRKNEHQKEIEHAKTEQETLRNKLVSLEGKILVGGENLLEKAQTQELLLEQSIAELEQHEKSEEALKQTLQQKATERIDIEERYSTLQDASTGITKKIHRVMQMLMGVKSELADQQQEHQREKEGIYENIRSLSRELALCELVLNSYVP
